Positions count from the first letter of the chain named.
T1: recombinant human GARP (R&D Systems, catalog number 6055-LR) (human, UniProt Q14392 20-627)
T1 construct: Bought soluble protein; In the phage panning and Fab screening it was in part biotinylated; also called antigen
T1 sequence: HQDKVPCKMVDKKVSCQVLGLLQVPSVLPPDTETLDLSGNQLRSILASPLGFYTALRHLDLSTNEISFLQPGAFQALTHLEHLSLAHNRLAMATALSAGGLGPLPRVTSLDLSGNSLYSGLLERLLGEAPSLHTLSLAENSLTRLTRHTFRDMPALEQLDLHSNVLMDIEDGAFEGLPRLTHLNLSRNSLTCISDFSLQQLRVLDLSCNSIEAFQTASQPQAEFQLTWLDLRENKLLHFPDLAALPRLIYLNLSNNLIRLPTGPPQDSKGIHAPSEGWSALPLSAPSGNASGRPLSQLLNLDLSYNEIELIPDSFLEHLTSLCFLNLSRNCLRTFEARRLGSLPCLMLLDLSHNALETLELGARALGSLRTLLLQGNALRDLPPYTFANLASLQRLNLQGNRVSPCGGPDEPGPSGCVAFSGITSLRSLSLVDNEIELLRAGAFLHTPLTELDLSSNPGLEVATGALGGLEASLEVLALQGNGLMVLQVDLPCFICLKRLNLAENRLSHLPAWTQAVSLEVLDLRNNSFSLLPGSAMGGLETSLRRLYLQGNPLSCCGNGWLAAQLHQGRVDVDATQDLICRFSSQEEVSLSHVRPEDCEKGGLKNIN

T2: human GARP expressed on cells (GARP-transfected HEK-293T cells; endogenous on L428 cells and activated Treg) (human, UniProt Q14392 20-662)
T2 construct: The transfected cells carry a human GARP cDNA clone (Origene) in pcDNA3.1(+); also called hGARP; endogenously expressed GARP
T2 sequence: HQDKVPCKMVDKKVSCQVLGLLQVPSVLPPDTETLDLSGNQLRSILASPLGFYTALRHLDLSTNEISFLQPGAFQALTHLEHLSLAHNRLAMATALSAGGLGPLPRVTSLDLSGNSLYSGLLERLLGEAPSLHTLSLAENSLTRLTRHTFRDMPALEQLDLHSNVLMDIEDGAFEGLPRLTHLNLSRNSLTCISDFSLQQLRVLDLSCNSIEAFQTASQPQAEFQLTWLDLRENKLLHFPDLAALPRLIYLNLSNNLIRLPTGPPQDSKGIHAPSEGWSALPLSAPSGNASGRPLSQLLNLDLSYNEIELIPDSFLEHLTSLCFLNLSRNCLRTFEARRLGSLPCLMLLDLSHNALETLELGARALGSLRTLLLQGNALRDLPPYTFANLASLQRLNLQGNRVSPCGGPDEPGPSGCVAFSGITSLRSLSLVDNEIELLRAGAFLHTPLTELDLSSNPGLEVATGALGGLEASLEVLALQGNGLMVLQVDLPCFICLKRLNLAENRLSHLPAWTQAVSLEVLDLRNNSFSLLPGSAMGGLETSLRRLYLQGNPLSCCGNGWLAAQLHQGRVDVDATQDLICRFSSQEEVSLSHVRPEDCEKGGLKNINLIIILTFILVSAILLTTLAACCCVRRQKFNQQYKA

B1: human chimeric 198D antibody c198D (antibody, human IgG1, V domains shown)
VH: QVQLRESGPGLVQPSQTLSLTCTVSGFSLTSFHVSWVRQPPEKGLEWIATISSGGGTYYNSALKSRLSISRDTSKSQVFLKMSTLQTEDTAMYFCARISGWGHYYVMDVWGQGASVTVSS
VL: DIQMTQSPASLSGSLGETVTIQCQASEDIYSGLAWYQQKPGKSPQLLIYGAGSLQDGVPSRFSGGGSGTHYSLKISSMQTEDEGVYFCQQGLKFPLTFGSGTKLEIKR
B2: human chimeric 151D antibody c151D (antibody, human IgG1, V domains shown)
VH: EVQLVESGGGLVQPGRSKKLSCSASGFTFSNYYMAWVRQAPTQGLEWVASIGTVGGNTYYRDSVKGRFTISRDDAKSTLYLQMDSLRSEDTATYYCAREDYGGFPHWGQGVMVTVSS
VL: NIVMTQSPTSMFISVGDRVTMNCKASQNVGTNVDWYQQKTGQSPKLLIYGASNRYTGVPDRFTGSGSGTDFTLTISNMQAEDLAVYDCLQYKYNPYTFGTGTKLELNR
B3: humanized anti-human GARP antibody h198D-H3L4 (antibody, human IgG1, kappa, V domains shown)
VH: EVQLVESGGGLVKPSQTLSLTCTVSGFSLTSFHVSWVRQPPGKGLEWIATISSGGGTYYNPSLKSRVTISRDTSKNQVSLKLSSVTAADTAVYYCARISGWGHYYVMDVWGQGTLVTVSS
VL: DIQMTQSPSSLSASVGDRVTITCQASEDIYSGLAWYQQKPGKSPKLLIYGAGSLQDGVPSRFSGSGSGTHYTLTISSLQPEDFATYFCQQGLKFPLTFGQGTKVEIKR
notes: Produced in Potelligent CHOK1SV cells; also called MACA-1983a
B4: humanized anti-human GARP antibody h151D-H1L1 (antibody, human IgG1, kappa, V domains shown)
VH: EVQLVESGGGLVQPGGSLRLSCAASGFTFSNYYMAWVRQAPGKGLEWVSSIGTVGGNTYYADSVKGRFTISRDDSKNTLYLQMNSLRAEDTAVYYCAREDYGGFPHWGQGTLVTVSS
VL: NIVMTQSPDSLAVSLGERATINCKASQNVGTNVDWYQQKPGQSPKLLIYGASNRYTGVPDRFSGSGSGTDFTLTISSLQAEDVAVYDCLQYKYNPYTFGQGTKVEIKR
notes: Produced in Potelligent CHOK1SV cells; also called MACA-1511a
B5: humanized anti-human GARP antibody h151D-H4L4 (antibody, human IgG1, kappa, V domains shown)
VH: B4 VH with S49A, A61R, N77S
VL: B4 VL with D9S, A12S, V13A, L15V, E17D, A19V, Q42K, A80P, V83F, V85T
notes: Produced in Potelligent CHOK1SV cells; also called MACA-1514a
B6: 110F antibody (antibody, human IgG1, lambda, V domains shown)
VH: EVQLLESGGGLVQPGGSLRLSCAASGFTFSSYGMHWVRQAPGKGLEWVAGISWNSAITVYADSVKGRFTISRDNSKNTLYLQMNSLRAEDTAVYYCAKDAGGRYSGSYYFDYWGQGTLVTVSS
VL: QSVLTQPPSASGTPGQRVTISCTGSSSNIGAGYDVHWYQQLPGTAPKLLIYGNSNRPSGVPDRFSGSKSGTSASLAISGLRSEDEADYYCQSYDRSLNWVFGGGTKLTVLG
B7: 110F Fab (ELISA-positive clone from the n-CoDeR Fab phage library) (Fab, V domains shown)
VH: B6 VH
VL: B6 VL
notes: Fab produced in Escherichia coli and tested as culture supernatant

Columns and labels:
[1] = target: human GARP expressed on cells (GARP-transfected HEK-293T cells; endogenous on L428 cells and activated Treg) (human) (UniProt Q14392); experiment: flow cytometry on CD3/CD28 bead-activated human PBMC gated on CD4-positive cells, FITC-labeled anti-IgG secondary antibody against PE anti-Foxp3
[2] = target: human GARP expressed on cells (GARP-transfected HEK-293T cells; endogenous on L428 cells and activated Treg) (human) (UniProt Q14392); experiment: flow cytometry on anti-CD3/anti-CD28 activated human PBMC, Alexa Fluor 647-labeled antibody against PE anti-Foxp3; the panel Antibody not-added prints 0.13
[3] = target: human GARP expressed on cells (GARP-transfected HEK-293T cells; endogenous on L428 cells and activated Treg) (human) (UniProt Q14392); experiment: flow cytometry on anti-CD3/anti-CD28 activated human PBMC, Alexa Fluor 647-labeled antibody against PE anti-Foxp3; the panel Antibody not-added prints 0.18
[4] = target: T1, recombinant human GARP (R&D Systems, …); experiment: SPR (Biacore T200), antibody captured on Protein A, recombinant human GARP as analyte, 1:1 fit
Protocol: (§1) The dissociation constant between the c151D or c198D produced in Example 6)-4 and human GARP was evaluated by using Biacore T200 (GE Healthcare Bioscience), according to a capture method, which comprises capturing the antibody as a ligand with the immobilized Protein A and then analyzing the dissociation constant using an antigen (recombinant human GARP: R&D Systems) as an analyte. HBS-EP+ (manufactured by GE Healthcare Bioscience) was used as a running buffer, and a Protein A Sensor Chip (manufactured by GE Healthcare Bioscience) was used as a sensor chip.
(§2) The human chimeric antibody (1 μg/mL) was added onto the chip at a rate of 10 μL/min for 20 seconds, and a dilution series solution (8 to 128 nM) of the antigen was then added at a flow rate of 30 μl/min for 120 seconds. Subsequently, the dissociation was monitored for 480 seconds. As a regeneration solution, Glycine 1.5 (manufactured by GE Healthcare Bioscience) was added at a flow rate of 20 μl/min for 30 seconds.
1:1 Fitting models were used in data analysis, and the association rate constant ka, the dissociation rate constant kd, and the dissociation constant (KD; KD=kd/ka) were calculated.

[5] = target: T1, recombinant human GARP (R&D Systems, …); experiment: SPR (Biacore T200), antibody captured on Protein A, GARP antigen as analyte, 1:1 fit
Protocol: as §1, with “between each of” for “between”, “humanized anti-human GARP antibodies h151D-H1L1, h151D-H4L4 and h198D-H3L4” for “c151D or c198D”, “7)-10” for “6)-4”, “and” for “and human”, “by” for “with”, “antigen” for “antigen (recombinant human GARP: R&D Systems)”
as §2, with “was” for “was then”
1:1 Fitting model was used in data analysis, and the association rate constant ka, the dissociation rate constant kd, and the dissociation constant (KD; KD=kd/ka) were calculated.

[6] = target: T2, human GARP expressed on cells …; experiment: flow cytometry on CD3/CD28 bead-activated human PBMC gated on CD4-positive cells, FITC-labeled anti-IgG secondary antibody against PE anti-Foxp3
[7] = target: T1, recombinant human GARP (R&D Systems, …); experiment: ELISA on plate-coated human GARP (1 ug/mL), 50 nM antibody, HRP anti-human Fc, chemiluminescence
Protocol: The plate was washed with the ELISA buffer three times. […] On the other hand, 100 μL of HRP-labeled anti-mouse Fc antibody (R&D Systems), which had been 5000-fold diluted with PBS, was added to the wells treated with mouse anti-GARP antibody and mouse IgG. The plate was incubated at room temperature for 1 hour with mixing.

[8] = target: T1, recombinant human GARP (R&D Systems, …); experiment: ELISA, Fab in E. coli culture supernatant on coated or NeutrAvidin-captured biotinylated GARP
Protocol: 50 μL GARP, which had been diluted to 2 μg/mL with PBS (0.01 M phosphate buffered saline (pH 7.4) containing 0.138 M sodium chloride and 0.0027 M potassium chloride; Sigma-Aldrich), was added to each well of a 384-well Maxi-sorp plate (Black, Nunc), and it was then incubated overnight at 4° C. for coating the plate. Alternatively, 50 μL of NeutrAvidin (Life Technologies) which had been diluted to 1 μg/mL with PBS was added to such a 384-well Maxi-sorp plate for coating the plate (by incubating overnight at 4° C.). Thereafter, the plate was washed with an ELISA buffer (PBS (Sigma-Aldrich) supplemented with 0.05% Tween-20 (Bio-RAD)) three times, and biotinylated GARP was then added thereto (1 pmol/50 μL PBS/well), followed by incubation at room temperature for 1 hour with mixing. The plate was washed with ELISA buffer three times, was then blocked with Blocker Casein (Thermo Scientific), and was further washed with the ELISA buffer three times. Thereafter, a culture supernatant containing Fab produced by Escherichia coli was added, and the plate was then incubated at room temperature for 1 hour with mixing. […] Ten minutes later, chemiluminescence was measured using a plate reader (Envision 2104 Multilabel Reader, Perkin Elmer), and GARP-bound Fab was isolated.

Molecule	Kd [5] [nM]	percent of CD4-positive cells in Q2 (GARP-positive, Foxp3-positive) [6] [%]	percent of CD4-positive cells in Q3 (GARP-positive, Foxp3-negative) [6] [%]	other results
human IgG (antibody)	–	–	–	percent of CD4-positive cells in Q2 (GARP-positive, Foxp3-positive) [1]: 0.039%; percent of CD4-positive cells in Q3 (GARP-positive, Foxp3-negative) [1]: 0.242%
Alexa Fluor 647-labeled anti-GARP antibody (G14D9, eBioscience)	–	–	–	percent of cells in the upper right quadrant (GARP-positive, Foxp3-positive) [2]: 4.19; percent of cells in the lower right quadrant (GARP-positive, Foxp3-negative) [3]: 0.81
B1	–	–	–	Kd [4]: 0.17 nM
B2	–	–	–	Kd [4]: 0.47 nM
B3	0.088	3.47	3.25	–
B4	1.8	3.54	2.41	–
B5	1.2	3.38	2.59	–
B6	–	–	–	binding result [7]: binds
B7	–	–	–	binding result [8]: binds

— patent publication US20240360245A1 (Daiichi Sankyo, published 2024)
